Patent US20240091360A1 (LENTIGEN TECHNOLOGY, published 2024)

T1: CD276-His (Acro biosystems) (UniProt Q5ZPR3-2 29-245, limits assumed)
T1 construct: Bought detection reagent, detected with anti-His PE
T1 sequence (looked up): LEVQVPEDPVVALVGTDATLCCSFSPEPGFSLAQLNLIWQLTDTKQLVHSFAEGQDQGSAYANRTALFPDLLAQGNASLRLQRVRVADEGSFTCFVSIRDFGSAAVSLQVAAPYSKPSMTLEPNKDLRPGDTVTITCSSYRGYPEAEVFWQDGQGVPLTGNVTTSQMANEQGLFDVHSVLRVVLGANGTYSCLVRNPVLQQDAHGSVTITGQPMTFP


What was measured:
[1] = molecular target: T1, CD276-His (Acro biosystems); test: flow cytometry; transduced primary human T cells co-stained with ROR1-Fc and CD276-His, then anti-Fc and anti-His conjugates
Text: Half million CAR T cells were washed in cold AutoMACS buffer supplemented with 0.5% bovine serum albumin (Miltenyi Biotec, Bergisch Gladbach, Germany) and stained with CAR detection reagents. For ROR1 CAR, cells were stained with ROR1-Fc peptide (R&D System, Minneapolis, MN), followed by anti Fc-AF647 conjugate(Jackson ImmunoResearch, West Grove, PA). For CD276 CAR or CCR, cells were stained with CD276-His (Acro biosystems, Newark, De), followed by anti-His PE (Miltenyi Biotech). The 7-Aminoactinomycin D staining (7-AAD, BD Biosciences, San Jose, CA) was added to exclude dead cells. CD4 antibody labeled with VioBlue was used to separate CD4 and CD8 population. Non-transduced cells (UTD) were used as a negative control. Cells were washed twice, resuspended in 200 μl running buffer, and acquired by flow cytometry. […]
CD276 specific targeting-scFvs were first evaluated in CAR context in vitro, ROR1 CAR was included as control. […] Surface expression of CD276 CARs with ROR1 binder on transduced T cells was measured by flow cytometry using CD276-His, followed by staining with anti-His PE. ROR1 CAR expression was determined as previously described. […] The target specific cytotoxicity of CD276 and/or ROR1 CARs was measured by luciferase based overnight killing assy. […]

[2] = molecular target: T2, ROR1.Fc (Sino Biologicals) (UniProt Q01973 30-403); test: flow cytometry of transduced primary human T cells at day 8; ROR1.Fc and anti-human Fc.AF647 are the listed reagents
T2 construct: not shown: Fc part of the bought reagent, not described
Experimental: Flow cytometric analysis was performed as previously described (12, 15, 16). All cell staining reagents for flow cytometry were from Miltenyi Biotec, unless otherwise noted. These include anti-ROR1.AF647, mouse IgG1 control. APC, anti-CD45.PE, anti-CD8. Viogreen, anti-CD3.VioBlue, anti-CD45. VioBright FITC, anti-CD45RA. APC-Vio770, anti-CD62L.PE, anti-PD1.PE-Vio770, Streptavidin. PE (Miltenyi Biotec). Cell viability solution (7-AAD), BD Pharm Lysing buffer were purchased from BD Biosciences. Anti-ROR1.AF647 was from R&D systems. ROR1.Fc was from Sino Biologicals. Anti-human Fc.AF647 was from Jackson ImmunoResearch. Countbright absolute counting beads were from ThermoFisher Scientific. Anti-TGFβRII. Biotin was from Biolegend. Stained cells were analyzed using the MACSQuant Analyzer 10 flow cytometer (Miltenyi Biotec).

[3] = molecular target: T3, ROR1-Fc peptide (R&D System) (UniProt Q01973 30-403); test: flow cytometry; transduced primary human T cells stained with ROR1-Fc, then anti-Fc Alexa Flour 647
T3 construct: Bought detection reagent (R&D Systems), detected with anti Fc-AF647; not shown: Fc part of the bought reagent, not described
Text: Half million CAR T cells were washed in cold AutoMACS buffer supplemented with 0.5% bovine serum albumin (Miltenyi Biotec, Bergisch Gladbach, Germany) and stained with CAR detection reagents. For ROR CAR, cells were stained with ROR1-Fc peptide (R&D System, Minneapolis, MN), followed by anti Fc-AF647 conjugate(Jackson ImmunoResearch, West Grove, PA). For MSLN CAR, cells were stained with MSLN-His (R&D System, Minneapolis, MN) […] anti-His-APC (Miltenyi Biotec). The 7-Aminoactinomycin D staining (7-AAD, BD Biosciences, San Jose, CA) was added to exclude dead cells. CD4 antibody labeled with VioBlue fluorochrome or CD8 antibody labeled with VioGreen fluorochrome was used to separate CD4 and CD8 population. Non-transduced cells (UTD) were used as a negative control. Cells were washed twice, resuspended in 200 μl running buffer, and acquired by flow cytometry. Flow cytometric analysis was performed on a MACSQuant® 10 Analyzer (Miltenyi Biotec), and data plots were generated using FlowJo software (Ashland, OR).
ROR1 and MSLN mono CARs and tandem CARs without mIL7 were included as control (FIG. 2A). CAR sequences were further incorporated into a third-generation lentiviral vectors and transduced into human primary T cells at MOI 40, to generate the ROR1 and/or MSLN CAR T cells under the control of the mammalian EF-1α promoter. Un-transduced T cells derived from same donor (UTD) were used as negative control. Surface expression of CARs with ROR1 binder on transduced T cells was measured by flow cytometry using ROR1-Fc, followed by staining with anti-Fc Alexa Flour 647. CARs with MSLN scFv surface expression was detected by MSLN-His followed by anti-His APC. […] Quantified CAR positive percentage and mean fluorescence intensity (MFI) of ROR1 binders (FIG. 2B, 2D) and MSLN binders (FIG. 2C, 2E) were plotted as bar figure.

[4] = molecular target: T4, FolR1-Fc peptide (Acro Biosystems) (UniProt P15328 25-233); test: flow cytometry; transduced primary human T cells stained with FolR1-Fc, then anti-Fc Alexa Flour 647
T4 construct: Bought detection reagent, detected with anti Fc-AF647; not shown: Fc part of the bought reagent, not described
Text: 0.32E6 CAR-T cells were washed in cold AutoMACS buffer supplemented with 0.5% bovine serum albumin (Miltenyi Biotec, Bergisch Gladbach, Germany) and stained with CAR detection reagents. For ROR CAR, cells were stained with ROR1-Fc peptide (R&D Systems, Minneapolis, MN) and FolR1 CAR were stained with FolR1-Fc peptide (Acro Biosystems, Newark, DE) followed by anti Fc-AF647 conjugate (Jackson ImmunoResearch, West Grove, PA). The 7-Aminoactinomycin D staining (7-AAD, BD Biosciences, San Jose, CA) was added to exclude dead cells. CD4 antibody labeled with VioBlue fluorochrome was used to separate CD4 and CD8 population. Processed mouse bone marrow and spleen were stained with human CD3 VioBlue and human CD45 FITC (Miltenyi Biotec) to determine the presence of CAR-T. To assess for memory phenotype, cells were stained with CD62L PE and CD45RA APC-Vio700 (Miltenyi Biotec). Non-transduced cells (UTD) were used as a negative control. Cells were washed twice, resuspended in 200 μl running buffer, and acquired by flow cytometry. […]
To test CAR-T functionality in vitro, ROR1 or FolR1 mono CARs with MMP-2, MMP-9, HPSE or PH-20 as booster elements were characterized. […] Surface expression of CARs with ROR1 or FolR1 binder on transduced T cells was measured by flow cytometry using ROR1-Fc or FolR1-Fc respectively, followed by staining with anti-Fc Alexa Flour 647.

T3 sequence (Q01973 30-403): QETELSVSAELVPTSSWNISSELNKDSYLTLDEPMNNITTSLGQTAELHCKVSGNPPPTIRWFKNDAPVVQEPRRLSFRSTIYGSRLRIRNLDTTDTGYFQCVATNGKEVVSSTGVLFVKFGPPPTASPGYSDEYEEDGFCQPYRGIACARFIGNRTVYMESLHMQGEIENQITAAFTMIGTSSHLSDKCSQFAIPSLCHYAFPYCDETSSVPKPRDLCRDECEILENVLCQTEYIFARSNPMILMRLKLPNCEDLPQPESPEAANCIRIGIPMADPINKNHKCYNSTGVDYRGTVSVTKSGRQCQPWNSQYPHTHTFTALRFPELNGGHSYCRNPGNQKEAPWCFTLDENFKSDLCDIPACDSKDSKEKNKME
T2 sequence (Q01973 30-403): as above
T4 sequence (P15328 25-233): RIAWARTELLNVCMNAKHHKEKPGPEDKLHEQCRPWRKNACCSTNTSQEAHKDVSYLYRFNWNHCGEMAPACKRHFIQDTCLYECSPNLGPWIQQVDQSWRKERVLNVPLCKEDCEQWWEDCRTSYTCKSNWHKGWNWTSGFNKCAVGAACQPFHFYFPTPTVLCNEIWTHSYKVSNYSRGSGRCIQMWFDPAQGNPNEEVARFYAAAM

Row | Binder | binding result [1] | binding result [2] | binding result [3] | binding result [4]
1 | CAR LTG2529 ROR1scFv9 IgG4 CD8 BBz (other, Chimeric antigen receptor on lentivirally transduced primary human T cells; The entry includes the N-terminal leader peptide; also called ROR1 CAR LTG2529; ROR1-LTG2529) QAAQVQLQQSGAEVKKPGSSVKVSCKASGGTFSSYAISWVRQAPGQGLEWMGWINPNSGGTNYAQRFQGRVTMTRDTSISTAYMELSRLRSDDTAVYYCASYNDAFDIWGQGTLVTVSSGGGGSGGGGSGGGGSNFMLTQPHSVSESPGKTVTISCTRSSGSIASNYVQWYQQRPGSAPTIVIYEDDQRPSGVPDRFSGSIDTSSNSASLTISGLQSEDEADYYCQSYEPGNGVFGGGTKVTVLAAAESKYGPPCPPCPIYIWAPLAGTCGVLLLSLVITLYCKRGRKKLLYIFKQPFMRPVQTTQEEDGCSCRFPEEEEGGCELRVKFSRSADAPAYQQGQNQLYNELNLGRREEYDVLDKRRGRDPEMGGKPRRKNPQEGLYNELQKDKMAEAYSEIGMKGERRRGKGHDGLYQGLSTATKDTYDALHMQALPPR | no binding | binds | binds | 
2 | CAR LTG2527 ROR1 IgG4 CD8 BBz (other, CAR on transduced primary human T cells; also called ROR1 R12 -IgG4 hinge-CD8TM-41BB-CD3ζ; R12-ROR1 LTG2527) QEQLVESGGRLVTPGGSLTLSCKASGFDFSAYYMSWVRQAPGKGLEWIATIYPSSGKTYYATWVNGRFTISSDNAQNTVDLQMNSLTAADRATYFCARDSYADDGALFNIWGPGTLVTISSGGGGSGGGGSGGGGSELVLTQSPSVSAALGSPAKITCTLSSAHKTDTIDWYQQLQGEAPRYLMQVQSDGSYTKRPGVPDRFSGSSSGADRYLIIPSVQADDEADYYCGADYIGGYVFGGGTQLTVTGAAAESKYGPPCPPCPIYIWAPLAGTCGVLLLSLVITLYCKRGRKKLLYIFKQPFMRPVQTTQEEDGCSCRFPEEEEGGCELRVKFSRSADAPAYQQGQNQLYNELNLGRREEYDVLDKRRGRDPEMGGKPRRKNPQEGLYNELQKDKMAEAYSEIGMKGERRRGKGHDGLYQGLSTATKDTYDALHMQALPPR |  | binds |  | 
3 | CAR D0233 MSLN M1-4S ROR1 scFv9 IgG4 CD8 BBz (other, Tandem CAR on transduced primary human T cells; also called MSLN-ROR1 scFv9-IgG4 hinge-CD8TM-41BB-CD3ζ; tandem CAR D0233) EVQLVQSGGGLVQPGGSLRLSCAASGFTFDDYAMHWVRQAPGKGLEWVSGISWNSGSIGYADSVKGRFTISRDNAKNSLYLQMNSLRAEDTALYYCAKDLSSVAGPFNYWGQGTLVTVSSGGGGSGGGGSGGGGSSSELTQDPAVSVALGQTVRITCQGDSLRSYYASWYQQKPGQAPVLVIYGKNNRPSGIPDRFSGSSSGNTASLTITGAQAEDEADYYCNSRDSSGNHLVFGGGTQLTVLGGGGGSGGGGSGGGGSGGGGSGGGGSQAAQVQLQQSGAEVKKPGSSVKVSCKASGGTFSSYAISWVRQAPGQGLEWMGWINPNSGGTNYAQRFQGRVTMTRDTSISTAYMELSRLRSDDTAVYYCASYNDAFDIWGQGTLVTVSSGGGGSGGGGSGGGGSNFMLTQPHSVSESPGKTVTISCTRSSGSIASNYVQWYQQRPGSAPTIVIYEDDQRPSGVPDRFSGSIDTSSNSASLTISGLQSEDEADYYCQSYEPGNGVFGGGTKVTVLAAAESKYGPPCPPCPIYIWAPLAGTCGVLLLSLVITLYCKRGRKKLLYIFKQPFMRPVQTTQEEDGCSCRFPEEEEGGCELRVKFSRSADAPAYQQGQNQLYNELNLGRREEYDVLDKRRGRDPEMGGKPRRKNPQEGLYNELQKDKMAEAYSEIGMKGERRRGKGHDGLYQGLSTATKDTYDALHMQALPPR |  |  | binds | 
4 | CAR D0351 Farle CD8 BBz (other, FolR1 CAR (Farletuzumab scFv) on transduced primary human T cells, PGK promoter; also called Farle-CD8H&TM-41BB-CD3ζ; mono-FolR1 D0351) MEVQLVESGGGVVQPGRSLRLSCSASGFTFSGYGLSWVRQAPGKGLEWVAMISSGGSYTYYADSVKGRFAISRDNAKNTLFLQMDSLRPEDTGVYFCARHGDDPAWFAYWGQGTPVTVSSASTKGGGGGSGGGGSGGGGSDIQLTQSPSSLSASVGDRVTITCSVSSSISSNNLHWYQQKPGKAPKPWIYGTSNLASGVPSRFSGSGSGTDYTFTISSLQPEDIATYYCQQWSSYPYMYTFGQGTKVEIKRTAAATTTPAPRPPTPAPTIASQPLSLRPEACRPAAGGAVHTRGLDFACDIYIWAPLAGTCGVLLLSLVITLYCKRGRKKLLYIFKQPFMRPVQTTQEEDGCSCRFPEEEEGGCELRVKFSRSADAPAYQQGQNQLYNELNLGRREEYDVLDKRRGRDPEMGGKPRRKNPQEGLYNELQKDKMAEAYSEIGMKGERRRGKGHDGLYQGLSTATKDTYDALHMQALPPR |  |  |  | binds
5 | D0290 ROR1 scFv9-IgG4 hinge-CD8TM-41BB-CD3ζ (other, CAR on transduced primary human T cells; also called CAR D0290; mono ROR1 CAR; not shown: IgG4 hinge, CD8 TM, 4-1BB, CD3ζ) QAAQVQLQQSGAEVKKPGSSVKVSCKASGGTFSSYAISWVRQAPGQGLEWMGWINPNSGGTNYAQRFQGRVTMTRDTSISTAYMELSRLRSDDTAVYYCASYNDAFDIWGQGTLVTVSSGGGGSGGGGSGGGGSNFMLTQPHSVSESPGKTVTISCTRSSGSIASNYVQWYQQRPGSAPTIVIYEDDQRPSGVPDRFSGSIDTSSNSASLTISGLQSEDEADYYCQSYEPGNGVFGGGTKVTVL |  |  | binds | 
